T1: recombinant CD14 (human, UniProt P08571 20-352, limits assumed)
T1 construct: also called hCD14
T1 sequence (looked up): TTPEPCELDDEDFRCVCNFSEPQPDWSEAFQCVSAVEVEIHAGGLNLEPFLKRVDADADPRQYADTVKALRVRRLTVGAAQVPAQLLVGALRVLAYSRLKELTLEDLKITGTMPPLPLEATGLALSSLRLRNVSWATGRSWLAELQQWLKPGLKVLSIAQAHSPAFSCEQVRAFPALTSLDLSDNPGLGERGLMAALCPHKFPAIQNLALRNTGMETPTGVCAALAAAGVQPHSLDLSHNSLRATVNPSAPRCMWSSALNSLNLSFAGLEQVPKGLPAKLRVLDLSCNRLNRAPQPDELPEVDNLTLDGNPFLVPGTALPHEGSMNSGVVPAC

T2: recombinant mouse MD2 protein (mouse, UniProt Q9JHF9 19-160)
T2 construct: also called mMD2
T2 sequence (looked up): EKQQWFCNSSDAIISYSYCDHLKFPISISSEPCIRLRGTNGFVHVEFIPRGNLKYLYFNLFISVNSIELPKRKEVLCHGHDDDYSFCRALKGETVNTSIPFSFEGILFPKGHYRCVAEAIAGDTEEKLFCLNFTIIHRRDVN

B1: recombinant TREML1 ECD (human TREM-like transcript-1 extracellular domain) (ligand)
chain: QGIVGSLPEVLQAPVGSSILVQCHYRLQDVKAQKVWCRFLPEGCQPLVSSAVDRRAPAGRRTFLTDLGGGLLQVEMVTLQEEDAGEYGCMVDGARGPQILHRVSLNILPPEEEEETHKIGSLAENAFSDPAGSANPLEPSQDEKSIP
notes: Expressed in E. coli from pET30-TREML1 and purified on Ni-NTA; also called hTREML1; not shown: N-terminal polyhistidine tag from pET30
B2: recombinant human MD2 protein (receptor, UniProt Q9Y6Y9 19-160, looked up)
chain: QKQYWVCNSSDASISYTYCDKMQYPISINVNPCIELKRSKGLLHIFYIPRRDLKQLYFNLYITVNTMNLPKRKEVICRGSDDDYSFCRALKGETVNTTISFSFKGIKFSKGKYKCVVEAISGSPEEMLFCLEFVILHQPNSN
notes: also called hMD2; LY96

Legend:
[1] = target: BSA (negative control) (UniProt P02769 25-607); assay: solid phase binding assay, BSA coated as negative control
Sequence of BSA (negative control) (P02769 25-607 limits assumed): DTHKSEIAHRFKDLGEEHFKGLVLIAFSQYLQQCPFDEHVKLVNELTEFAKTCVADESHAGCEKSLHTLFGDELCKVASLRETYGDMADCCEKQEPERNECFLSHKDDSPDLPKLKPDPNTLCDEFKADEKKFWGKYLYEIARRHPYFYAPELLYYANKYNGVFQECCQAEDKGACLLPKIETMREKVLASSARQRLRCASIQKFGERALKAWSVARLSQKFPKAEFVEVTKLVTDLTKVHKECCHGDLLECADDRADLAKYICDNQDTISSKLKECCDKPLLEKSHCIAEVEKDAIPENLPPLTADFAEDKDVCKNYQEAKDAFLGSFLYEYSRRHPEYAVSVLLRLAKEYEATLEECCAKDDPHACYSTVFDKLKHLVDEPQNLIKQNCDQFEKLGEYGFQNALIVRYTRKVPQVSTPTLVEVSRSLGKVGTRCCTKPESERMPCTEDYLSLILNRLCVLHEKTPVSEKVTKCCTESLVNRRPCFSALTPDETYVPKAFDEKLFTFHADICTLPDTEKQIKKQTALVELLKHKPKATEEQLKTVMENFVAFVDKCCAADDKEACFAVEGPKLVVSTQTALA
Protocol: (§1) To identify potential binding partners of TREML1 ECD, we used solid phase binding assay to assess interactions between TREML1 ECD and candidate proteins. Briefly, various candidate proteins and BSA (as a negative control) were coated on a 96-well plate and TREML1 ECD at various concentrations were added to the wells. After binding and washing, an anti-TREML1 antibody conjugated with horse radish peroxidase (HRP) was added to each well. After washing, HRP substrate, TMB (3,3′,5,5′-tetramethylbenzidine), was added. After reaction, absorbance at 450 nm was measured to assess TREML1 binding. An exemplary set of results is shown in FIG. 2, in which recombinant TREML1 ECD binds MD2 and TLR4 in a concentration-dependent manner.
(§2) To investigate the protein-protein interactions. Recombinant TLR4 (5 ug/ml in PBS), MD2 (5 ug/ml in PBS), CD14 (5 ug/ml in PBS), and BSA (negative control) proteins were plated separately on 96-well plates and incubated overnight at 4 degrees Celsius. The blocking buffer (2% BSA in PBS) was added to avoid the nonspecific binding for 2 hr at room temperature. A serial diluted TREML1 ECD (2.5 ug/ml to 156 ng/ml, 2-fold dilutions) solutions were added and allowed to incubate at room temperature for 2 hr. Then, anti-TREML1 antibody (1 ug/ml in PBS) was added for 1 hr. […] Absorbance at OD450/540 nm was measured with a microplate reader.

[2] = target: T1, recombinant CD14; assay: solid phase binding assay, CD14 coated at 5 ug/ml
Protocol: as §1, §2

[3] = target: T2, recombinant mouse MD2 protein; assay: solid phase binding assay, mTREML1 stalk coated, anti-His-HRP detection
Protocol: (§3) For TREML1 or mTREML1 stalk binding to human or mouse MD2 protein, TREML1 stalk or mTREML1 stalk (5 ug/ml in PBS) was coated separately on a 96-well plate. Recombinant hTLR4, hMD2, hCD14, or mMD2 was each serially diluted and added to the plates. Anti-His tag antibody-HRP was used as a detection antibody to detect the protein binding.

[4] = target: B2; assay: solid phase binding assay, TREML1 stalk coated, anti-His-HRP detection
Protocol: as §3

[5] = target: T3, recombinant TLR4 (toll-like receptor 4) (human, UniProt O00206 24-631, limits assumed); assay: solid phase binding assay, TREML1 stalk coated at 5 ug/ml, anti-His-HRP detection
T3 construct: also called hTLR4
T3 sequence (O00206 24-631 limits assumed): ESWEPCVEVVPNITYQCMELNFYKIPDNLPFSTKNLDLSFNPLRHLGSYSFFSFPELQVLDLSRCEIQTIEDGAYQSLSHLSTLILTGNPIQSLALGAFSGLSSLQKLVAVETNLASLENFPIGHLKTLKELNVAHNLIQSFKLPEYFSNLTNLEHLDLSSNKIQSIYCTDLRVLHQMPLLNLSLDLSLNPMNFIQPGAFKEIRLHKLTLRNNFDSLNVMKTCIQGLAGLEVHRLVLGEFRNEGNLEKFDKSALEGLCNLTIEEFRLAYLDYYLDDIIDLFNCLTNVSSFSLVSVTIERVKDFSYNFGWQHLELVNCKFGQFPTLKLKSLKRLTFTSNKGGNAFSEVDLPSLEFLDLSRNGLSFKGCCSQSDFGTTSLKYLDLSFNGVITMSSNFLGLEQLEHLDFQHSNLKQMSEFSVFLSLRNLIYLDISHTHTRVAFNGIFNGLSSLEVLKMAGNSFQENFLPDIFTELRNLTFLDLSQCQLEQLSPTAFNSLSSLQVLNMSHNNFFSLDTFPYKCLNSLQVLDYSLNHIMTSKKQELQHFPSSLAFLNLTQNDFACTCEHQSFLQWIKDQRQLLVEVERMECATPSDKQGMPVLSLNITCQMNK
Protocol: as §3

[6] = target: T1, recombinant CD14; assay: as above
Protocol: as §3

[7] = target: B1; assay: solid phase binding assay, MD2 coated
Protocol: as §1, §2

B1: no binding (tested: 2.5 ug/ml to 156 ng/ml TREML1 ECD) [1]; no binding (tested: 2.5 ug/ml to 156 ng/ml TREML1 ECD) [2].

EGEEAEDEKETYRIGTGSLLEDPSLDPSASAGPHEFRRRENSIP (also called mouse TREML1 stalk) [mTREML1 stalk polypeptide (mouse)]: binds [3].

ILPPEEEEETHKIGSLAENAFSDPAGSANPLEPSQDEKSIP [TREML1 stalk polypeptide (human)]: binds [4]; no binding [5]; no binding [6].

B2: binds [7].
